Numbered stars: 1 amine (or outer) side, 2 acyl side, 3 side chain; on linkers, the order of the positions; unused ones are H or OH. Side chains are listed from the residue outwards. Ends that are not written are not given here. * marks the point of attachment. γGlu = O=C(O)[C@H](CCC(=O)[*:2])N[*:1]; Palmitoyl = CCCCCCCCCCCCCCCC(=O)*
T1: human glucose-dependent insulinotropic peptide (gastric inhibitory polypeptide) receptor (human) (UniProt P48546)
T1 sequence (looked up): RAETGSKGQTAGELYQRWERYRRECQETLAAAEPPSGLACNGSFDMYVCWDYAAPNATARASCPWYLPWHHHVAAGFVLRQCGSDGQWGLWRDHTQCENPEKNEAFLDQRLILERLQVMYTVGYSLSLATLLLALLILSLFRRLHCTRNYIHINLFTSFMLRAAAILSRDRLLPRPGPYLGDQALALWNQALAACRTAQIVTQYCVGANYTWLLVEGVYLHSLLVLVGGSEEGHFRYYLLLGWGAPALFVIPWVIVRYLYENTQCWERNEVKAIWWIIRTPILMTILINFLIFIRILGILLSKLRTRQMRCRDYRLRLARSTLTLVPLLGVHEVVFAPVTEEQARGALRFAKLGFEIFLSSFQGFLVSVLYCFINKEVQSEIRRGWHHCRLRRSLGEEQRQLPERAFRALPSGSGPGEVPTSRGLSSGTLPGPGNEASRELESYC


Assays:
Experiment in all cases: cell-based or functional assay
human glucagon receptor = human glucagon receptor (human, UniProt P47871 26-477)
[1] = biological target: T1, human glucose-dependent insulinotropic peptide (gastric inhibitory polypeptide) receptor (human)
human GLP-1 receptor = human GLP-1 receptor (human, UniProt P43220 24-463)
human GLP-1 receptor, sequence (P43220 24-463): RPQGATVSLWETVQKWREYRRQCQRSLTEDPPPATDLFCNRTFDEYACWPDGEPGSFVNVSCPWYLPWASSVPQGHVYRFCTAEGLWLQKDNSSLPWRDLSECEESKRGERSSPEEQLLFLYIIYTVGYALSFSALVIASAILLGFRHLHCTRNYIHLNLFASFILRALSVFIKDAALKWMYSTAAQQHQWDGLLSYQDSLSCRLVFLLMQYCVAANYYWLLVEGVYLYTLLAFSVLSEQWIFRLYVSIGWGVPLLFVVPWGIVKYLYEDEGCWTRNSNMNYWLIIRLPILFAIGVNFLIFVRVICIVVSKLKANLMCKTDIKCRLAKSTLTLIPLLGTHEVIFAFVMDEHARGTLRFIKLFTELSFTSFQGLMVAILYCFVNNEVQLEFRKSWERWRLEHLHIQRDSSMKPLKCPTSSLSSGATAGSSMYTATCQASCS

human glucagon receptor, sequence (P47871 26-477): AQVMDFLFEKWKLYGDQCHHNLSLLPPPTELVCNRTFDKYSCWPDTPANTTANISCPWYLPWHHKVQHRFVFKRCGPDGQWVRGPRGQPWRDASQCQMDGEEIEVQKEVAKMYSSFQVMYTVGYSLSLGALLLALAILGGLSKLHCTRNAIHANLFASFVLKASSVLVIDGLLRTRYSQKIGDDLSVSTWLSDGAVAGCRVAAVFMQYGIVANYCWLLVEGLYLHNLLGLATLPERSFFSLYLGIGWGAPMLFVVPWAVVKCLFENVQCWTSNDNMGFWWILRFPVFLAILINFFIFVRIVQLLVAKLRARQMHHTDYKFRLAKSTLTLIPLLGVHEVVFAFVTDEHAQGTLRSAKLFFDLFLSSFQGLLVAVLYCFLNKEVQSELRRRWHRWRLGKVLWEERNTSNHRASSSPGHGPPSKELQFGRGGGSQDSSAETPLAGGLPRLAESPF

Row | Binder | cAMP EC50 (assay 1) (human glucagon receptor) | cAMP EC50 (assay 1) [1] | cAMP EC50 (assay 1) (human GLP-1 receptor)
1 | HSQGTFTSDYSKYLDSRK([γGlu-Palmitoyl])ARDFVAWLEAGG-NH2 (N-terminus assumed; SMILES CCCCCCCCCCCCCCCC(=O)N[C@@H](CCC(=O)NCCCC[C@H](NC(=O)[C@H](CCCNC(=N)N)NC(=O)[C@H](CO)NC(=O)[C@H](CC(=O)O)NC(=O)[C@H](CC(C)C)NC(=O)[C@H](Cc1ccc(O)cc1)NC(=O)[C@H](CCCCN)NC(=O)[C@H](CO)NC(=O)[C@H](Cc1ccc(O)cc1)NC(=O)[C@H](CC(=O)O)NC(=O)[C@H](CO)NC(=O)[C@@H](NC(=O)[C@H](Cc1ccccc1)NC(=O)[C@@H](NC(=O)CNC(=O)[C@H](CCC(N)=O)NC(=O)[C@H](CO)NC(=O)[C@@H](N)Cc1c[nH]cn1)[C@@H](C)O)[C@@H](C)O)C(=O)N[C@@H](C)C(=O)N[C@@H](CCCNC(=N)N)C(=O)N[C@@H](CC(=O)O)C(=O)N[C@@H](Cc1ccccc1)C(=O)N[C@H](C(=O)N[C@@H](C)C(=O)N[C@@H](Cc1c[nH]c2ccccc12)C(=O)N[C@@H](CC(C)C)C(=O)N[C@@H](CCC(=O)O)C(=O)N[C@@H](C)C(=O)NCC(=O)NCC(N)=O)C(C)C)C(=O)O) [g782] | 0.156 nM | 1430 nM | 0.0254 nM
2 | HSQGTFTSDYSKYLDSRRAQDFVQWLEAGGK([γGlu-Palmitoyl])-NH2 (N-terminus assumed; SMILES CCCCCCCCCCCCCCCC(=O)N[C@@H](CCC(=O)NCCCC[C@H](NC(=O)CNC(=O)CNC(=O)[C@H](C)NC(=O)[C@H](CCC(=O)O)NC(=O)[C@H](CC(C)C)NC(=O)[C@H](Cc1c[nH]c2ccccc12)NC(=O)[C@H](CCC(N)=O)NC(=O)[C@@H](NC(=O)[C@H](Cc1ccccc1)NC(=O)[C@H](CC(=O)O)NC(=O)[C@H](CCC(N)=O)NC(=O)[C@H](C)NC(=O)[C@H](CCCNC(=N)N)NC(=O)[C@H](CCCNC(=N)N)NC(=O)[C@H](CO)NC(=O)[C@H](CC(=O)O)NC(=O)[C@H](CC(C)C)NC(=O)[C@H](Cc1ccc(O)cc1)NC(=O)[C@H](CCCCN)NC(=O)[C@H](CO)NC(=O)[C@H](Cc1ccc(O)cc1)NC(=O)[C@H](CC(=O)O)NC(=O)[C@H](CO)NC(=O)[C@@H](NC(=O)[C@H](Cc1ccccc1)NC(=O)[C@@H](NC(=O)CNC(=O)[C@H](CCC(N)=O)NC(=O)[C@H](CO)NC(=O)[C@@H](N)Cc1c[nH]cn1)[C@@H](C)O)[C@@H](C)O)C(C)C)C(N)=O)C(=O)O) [g747] | 0.0942 nM | 1040 nM | 3.16 nM
3 | HGQGTFTSDYSKYLDSK([γGlu-Palmitoyl])RAQDFVQWLEAGG-NH2 (N-terminus assumed; SMILES CCCCCCCCCCCCCCCC(=O)N[C@@H](CCC(=O)NCCCC[C@H](NC(=O)[C@H](CO)NC(=O)[C@H](CC(=O)O)NC(=O)[C@H](CC(C)C)NC(=O)[C@H](Cc1ccc(O)cc1)NC(=O)[C@H](CCCCN)NC(=O)[C@H](CO)NC(=O)[C@H](Cc1ccc(O)cc1)NC(=O)[C@H](CC(=O)O)NC(=O)[C@H](CO)NC(=O)[C@@H](NC(=O)[C@H](Cc1ccccc1)NC(=O)[C@@H](NC(=O)CNC(=O)[C@H](CCC(N)=O)NC(=O)CNC(=O)[C@@H](N)Cc1c[nH]cn1)[C@@H](C)O)[C@@H](C)O)C(=O)N[C@@H](CCCNC(=N)N)C(=O)N[C@@H](C)C(=O)N[C@@H](CCC(N)=O)C(=O)N[C@@H](CC(=O)O)C(=O)N[C@@H](Cc1ccccc1)C(=O)N[C@H](C(=O)N[C@@H](CCC(N)=O)C(=O)N[C@@H](Cc1c[nH]c2ccccc12)C(=O)N[C@@H](CC(C)C)C(=O)N[C@@H](CCC(=O)O)C(=O)N[C@@H](C)C(=O)NCC(=O)NCC(N)=O)C(C)C)C(=O)O) [g512] | 0.0606 nM | 407 nM | 0.098 nM
4 | HSQGTFTSDYSKYLDK([γGlu-Palmitoyl])RRARDFVAWLEAGG-NH2 (N-terminus assumed; SMILES CCCCCCCCCCCCCCCC(=O)N[C@@H](CCC(=O)NCCCC[C@H](NC(=O)[C@H](CC(=O)O)NC(=O)[C@H](CC(C)C)NC(=O)[C@H](Cc1ccc(O)cc1)NC(=O)[C@H](CCCCN)NC(=O)[C@H](CO)NC(=O)[C@H](Cc1ccc(O)cc1)NC(=O)[C@H](CC(=O)O)NC(=O)[C@H](CO)NC(=O)[C@@H](NC(=O)[C@H](Cc1ccccc1)NC(=O)[C@@H](NC(=O)CNC(=O)[C@H](CCC(N)=O)NC(=O)[C@H](CO)NC(=O)[C@@H](N)Cc1c[nH]cn1)[C@@H](C)O)[C@@H](C)O)C(=O)N[C@@H](CCCNC(=N)N)C(=O)N[C@@H](CCCNC(=N)N)C(=O)N[C@@H](C)C(=O)N[C@@H](CCCNC(=N)N)C(=O)N[C@@H](CC(=O)O)C(=O)N[C@@H](Cc1ccccc1)C(=O)N[C@H](C(=O)N[C@@H](C)C(=O)N[C@@H](Cc1c[nH]c2ccccc12)C(=O)N[C@@H](CC(C)C)C(=O)N[C@@H](CCC(=O)O)C(=O)N[C@@H](C)C(=O)NCC(=O)NCC(N)=O)C(C)C)C(=O)O) [g781] | 0.00286 nM | 402 nM | 0.104 nM

More lines, now with the values ahead:

Row | cAMP EC50 (assay 1) (human glucagon receptor) | cAMP EC50 (assay 1) [1] | cAMP EC50 (assay 1) (human GLP-1 receptor) | Binder
5 | 0.0155 nM | 100 nM | 0.124 nM | HSQGTFTSDYSKYK([γGlu-Palmitoyl])DSERARDFVEWLEAGG-NH2 (N-terminus assumed; SMILES CCCCCCCCCCCCCCCC(=O)N[C@@H](CCC(=O)NCCCC[C@H](NC(=O)[C@H](Cc1ccc(O)cc1)NC(=O)[C@H](CCCCN)NC(=O)[C@H](CO)NC(=O)[C@H](Cc1ccc(O)cc1)NC(=O)[C@H](CC(=O)O)NC(=O)[C@H](CO)NC(=O)[C@@H](NC(=O)[C@H](Cc1ccccc1)NC(=O)[C@@H](NC(=O)CNC(=O)[C@H](CCC(N)=O)NC(=O)[C@H](CO)NC(=O)[C@@H](N)Cc1c[nH]cn1)[C@@H](C)O)[C@@H](C)O)C(=O)N[C@@H](CC(=O)O)C(=O)N[C@@H](CO)C(=O)N[C@@H](CCC(=O)O)C(=O)N[C@@H](CCCNC(=N)N)C(=O)N[C@@H](C)C(=O)N[C@@H](CCCNC(=N)N)C(=O)N[C@@H](CC(=O)O)C(=O)N[C@@H](Cc1ccccc1)C(=O)N[C@H](C(=O)N[C@@H](CCC(=O)O)C(=O)N[C@@H](Cc1c[nH]c2ccccc12)C(=O)N[C@@H](CC(C)C)C(=O)N[C@@H](CCC(=O)O)C(=O)N[C@@H](C)C(=O)NCC(=O)NCC(N)=O)C(C)C)C(=O)O) [g836]
6 | 0.00195 nM | 99.7 nM | 0.0715 nM | HSQGTFTSDYSKYK([γGlu-Palmitoyl])DSRRARDFVAWLEA-NH2 (N-terminus assumed; SMILES CCCCCCCCCCCCCCCC(=O)N[C@@H](CCC(=O)NCCCC[C@H](NC(=O)[C@H](Cc1ccc(O)cc1)NC(=O)[C@H](CCCCN)NC(=O)[C@H](CO)NC(=O)[C@H](Cc1ccc(O)cc1)NC(=O)[C@H](CC(=O)O)NC(=O)[C@H](CO)NC(=O)[C@@H](NC(=O)[C@H](Cc1ccccc1)NC(=O)[C@@H](NC(=O)CNC(=O)[C@H](CCC(N)=O)NC(=O)[C@H](CO)NC(=O)[C@@H](N)Cc1c[nH]cn1)[C@@H](C)O)[C@@H](C)O)C(=O)N[C@@H](CC(=O)O)C(=O)N[C@@H](CO)C(=O)N[C@@H](CCCNC(=N)N)C(=O)N[C@@H](CCCNC(=N)N)C(=O)N[C@@H](C)C(=O)N[C@@H](CCCNC(=N)N)C(=O)N[C@@H](CC(=O)O)C(=O)N[C@@H](Cc1ccccc1)C(=O)N[C@H](C(=O)N[C@@H](C)C(=O)N[C@@H](Cc1c[nH]c2ccccc12)C(=O)N[C@@H](CC(C)C)C(=O)N[C@@H](CCC(=O)O)C(=O)N[C@@H](C)C(N)=O)C(C)C)C(=O)O) [g804]
7 | 0.00219 nM | 89.6 nM | 0.0212 nM | HSQGTFTSDYSRYK([γGlu-Palmitoyl])DSRSARDFVAWLEA-NH2 (N-terminus assumed; SMILES CCCCCCCCCCCCCCCC(=O)N[C@@H](CCC(=O)NCCCC[C@H](NC(=O)[C@H](Cc1ccc(O)cc1)NC(=O)[C@H](CCCNC(=N)N)NC(=O)[C@H](CO)NC(=O)[C@H](Cc1ccc(O)cc1)NC(=O)[C@H](CC(=O)O)NC(=O)[C@H](CO)NC(=O)[C@@H](NC(=O)[C@H](Cc1ccccc1)NC(=O)[C@@H](NC(=O)CNC(=O)[C@H](CCC(N)=O)NC(=O)[C@H](CO)NC(=O)[C@@H](N)Cc1c[nH]cn1)[C@@H](C)O)[C@@H](C)O)C(=O)N[C@@H](CC(=O)O)C(=O)N[C@@H](CO)C(=O)N[C@@H](CCCNC(=N)N)C(=O)N[C@@H](CO)C(=O)N[C@@H](C)C(=O)N[C@@H](CCCNC(=N)N)C(=O)N[C@@H](CC(=O)O)C(=O)N[C@@H](Cc1ccccc1)C(=O)N[C@H](C(=O)N[C@@H](C)C(=O)N[C@@H](Cc1c[nH]c2ccccc12)C(=O)N[C@@H](CC(C)C)C(=O)N[C@@H](CCC(=O)O)C(=O)N[C@@H](C)C(N)=O)C(C)C)C(=O)O) [g850]

Reference: patent US20190185537A1 (AstraZeneca / MedImmune, published 2019)
